The source of these data is US20060115482A1, “Modifications of histone proteins as indicators of cell proliferation and differentiation” (The Regents of the University of California, priority 2004, published 2006).

For data set [1], the system named is H2B-S33. Briefly: In vitro kinase assay (γ32P-ATP, SDS-PAGE, autoradiography, scintillation counting). In kind it is biochemical, Drosophila. The following applies: for H2B phosphorylation in vitro (qualitative): autoradiography; for Turnover values for phosphorylation of H2B-S33: 3 μg enzyme. The protocol:
Kinase reactions were programmed with 1 μg RAP74, 1 μg recombinant histone, 2 μg polynucleosomes, 2 μg histone octamers, or 300 ng histone peptide, and contained 400 ng endogenous TFIID or 250 ng recombinant TAF1 derivatives and 0.25 μCi γ^32P-ATP. Reactions were performed in 20 μl kinase buffer (25 mM Hepes (pH 7.6), 10% glycerol, and 400 mM NaCl) for 25 min at 25° C. Reaction products were analyzed by SDS-PAGE using 8%—(for recombinant proteins), 15%—(for histones), or 18% (for peptides) gels. After electrophoresis, gels were dried and exposed to X-ray film.
To quantify kinase reactions, reactions products were separated by SDS-PAGE and detected by coomassie blue staining. Radiolabeled H2B was detected by autoradiography, excised from the gel, and analyzed by scintillation counting.
To measure the kinase activity of TFIID, TAF1, CTK, and mutant CTK-derivatives, reaction products of in vitro kinase assays were separated by SDS-PAGE and stained with coomassie blue. Radiolabeled H2B, H2BT and controls were excised from the gel and incorporation of radioactivity was determined by scintillation counting. Turnover values for phosphorylation of H2B-S33 were determined by measuring incorporation of radiolabeled phosphate groups into H2B in the presence of 3 μg TAF1, TFIID, or CTK-derivatives and 3 μg H2B or 12 μg nucleosomes. The turnover values were: TFIID (nucleosomes: 3.3/sec; H2B: 2.6/sec); TAF1: (nucleosomes: 2.5/sec; H2B: 2.5/sec); CTK: (nucleosomes: 2.6/sec; H2B: 4.4/sec).

Data set [2] has as its target T1, acetylated H4 (Homo sapiens, UniProt P62805).
T1 construct: H4 peptide (amino acids 1-20); host or cells: H4 peptide made by chemical synthesis; Flag-CTK proteins made in Sf9 cells with baculovirus
The data set is described as follows: Acetylated-lysine interaction assay. In kind it is binding. The following applies: H4 peptide acetylated at lysine 5, 8, 12, 16. How it is done: FIG. 6. (A) Silver stained gel corresponding to the autoradiograms shown inn FIG. 2B) of in vitro kinase assays containing γ^32P-ATP, native nucleosomes (top) or recombinant H2B (bottom), and TFIID, TAF1, or TAF1 derivatives (B) CTK(D1548A) binds acetylated histone H4. Western blot of protein:protein interaction assays. Anti-Flag antibody agarose beads loaded with recombinant Flag-CTK, Flag-CTK(D1548), or FLAG-110 (beads) were incubated with H4 peptide (amino acids 1-20) or H4 peptide [acetyl(H4)] acetylated at lysine 5, 8, 12, 16. Precipitated peptides were separated by SDS-PAGE, electrophoretically transferred onto nitrocellulose, and detected using antibodies to H4 (top) and acetylated H4 (bottom). (C) The CTK phosphorylates serine residues in H2BT. A schematic representation of H2BT is shown on top with highlighted positions of threonines (T) and serines (S). […]
The interaction of CTK and CTK(D1548A) with unmodified and acetylated H4 peptides was monitored as described (14, 15). […]

B1: CTK: COOH-terminal kinase domain of Drosophila TAF1, amino acids 1496-2132 (protein)
chain: LFPVSAKKVPDYYRVVTKPMDLQTMREYIRQRRYTSREMFLEDLKQIVDNSLIYNGPQSAYTLAAQRMFSSCFELLAEREDKLMRLEKAINPLLDDDDQVALSFIFDKLHSQIKQLPESWPFLKPVNKKQVKDYYTVIKRPMDLETIGKNIEAHRYHSRAEYLADIELIATNCEQYNGSDTRYTKFSKKILEYAQTQLIEFSEHCGQLENNIAKTQERARENAPEFDEAWGNDDYNFDRGSRASSPGDDYIDVEGHGGHASSSNSIHRSMGAEAGSSHTAPAVRKPAPPGPGEVKRGRGRPRKQRDPVEEVKSQNPVKRGRGRPRKDSLASNMSHTQAYFLDEDLQCSTDDEDDDEEEDFQEVSEDENNAASILDQGERINAPADAMDGMFDPKNIKTEIDLEAHQMAEEPIGEDDSQQVAEAMVQLSGVGGYYAQQQQDESMDVDPNYDPSDFLAMHKQRQSLGEPSSLQGAFTNFLSHEQDDNGPYNPAEASTSAASGADLGMDASMAMQMAPEMPVNTMNNGMGIDDDLDISESDEEDDGSRVRIKKEVFDDGDYALQHQQMGQAASQSQIYMVDSSNEPTTLDYQQPPQLDFQQVQEMEQLQHQVMPPMQSEQLQQQQTPQGDNDYAWTF
For the molecule B1, the “H2B phosphorylation in vitro (qualitative)” value in data set [1] is listed as “strongly phosphorylated H2B”. In addition, the “Turnover values for phosphorylation of H2B-S33” value is 4.4 s⁻¹ in data set [1] (substrate 3 μg H2B) and 2.6 s⁻¹ in data set [1] (substrate 12 μg nucleosomes).

B2: CTK(D1538A): CTK with catalytically important aspartic acid of the S/T-kinase motif mutated to alanine (protein)
chain: LFPVSAKKVPDYYRVVTKPMDLQTMREYIRQRRYTSREMFLEALKQIVDNSLIYNGPQSAYTLAAQRMFSSCFELLAEREDKLMRLEKAINPLLDDDDQVALSFIFDKLHSQIKQLPESWPFLKPVNKKQVKDYYTVIKRPMDLETIGKNIEAHRYHSRAEYLADIELIATNCEQYNGSDTRYTKFSKKILEYAQTQLIEFSEHCGQLENNIAKTQERARENAPEFDEAWGNDDYNFDRGSRASSPGDDYIDVEGHGGHASSSNSIHRSMGAEAGSSHTAPAVRKPAPPGPGEVKRGRGRPRKQRDPVEEVKSQNPVKRGRGRPRKDSLASNMSHTQAYFLDEDLQCSTDDEDDDEEEDFQEVSEDENNAASILDQGERINAPADAMDGMFDPKNIKTEIDLEAHQMAEEPIGEDDSQQVAEAMVQLSGVGGYYAQQQQDESMDVDPNYDPSDFLAMHKQRQSLGEPSSLQGAFTNFLSHEQDDNGPYNPAEASTSAASGADLGMDASMAMQMAPEMPVNTMNNGMGIDDDLDISESDEEDDGSRVRIKKEVFDDGDYALQHQQMGQAASQSQIYMVDSSNEPTTLDYQQPPQLDFQQVQEMEQLQHQVMPPMQSEQLQQQQTPQGDNDYAWTF
For B2, the “H2B phosphorylation in vitro (qualitative)” value in data set [1] was “weak autophosphorylation and H2B trans-phosporylation activities”. The “binding to acetylated H4 in vitro” value in data set [2] is “retains the ability to bind acetylated H4 in vitro”.
